From patent US20240343802A1 (Zymeworks, published 2024)
Residue numbers refer to the chain shown, from its start.

T1: CD19 on CD19-expressing Raji B cells (human, UniProt P15391 20-556)
T1 construct: whole, on cells
T1 sequence (looked up): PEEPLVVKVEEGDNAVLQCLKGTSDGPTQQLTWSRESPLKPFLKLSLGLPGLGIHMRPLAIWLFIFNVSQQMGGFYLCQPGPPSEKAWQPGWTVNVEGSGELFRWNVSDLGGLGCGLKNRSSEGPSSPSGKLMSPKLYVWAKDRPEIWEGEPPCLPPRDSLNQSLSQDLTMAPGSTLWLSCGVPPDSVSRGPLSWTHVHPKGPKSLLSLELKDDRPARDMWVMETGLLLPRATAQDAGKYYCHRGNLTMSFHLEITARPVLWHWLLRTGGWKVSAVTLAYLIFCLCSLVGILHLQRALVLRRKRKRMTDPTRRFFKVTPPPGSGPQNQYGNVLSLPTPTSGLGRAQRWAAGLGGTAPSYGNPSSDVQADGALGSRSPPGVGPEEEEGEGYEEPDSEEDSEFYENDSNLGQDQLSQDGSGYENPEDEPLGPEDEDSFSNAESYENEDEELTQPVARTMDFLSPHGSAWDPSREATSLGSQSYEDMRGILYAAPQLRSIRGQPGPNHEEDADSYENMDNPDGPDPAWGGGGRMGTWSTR

T2: CD20 on CD19 and CD20-expressing Raji B cells (human, UniProt P11836 1-297)
T2 construct: whole, on cells
T2 sequence (looked up): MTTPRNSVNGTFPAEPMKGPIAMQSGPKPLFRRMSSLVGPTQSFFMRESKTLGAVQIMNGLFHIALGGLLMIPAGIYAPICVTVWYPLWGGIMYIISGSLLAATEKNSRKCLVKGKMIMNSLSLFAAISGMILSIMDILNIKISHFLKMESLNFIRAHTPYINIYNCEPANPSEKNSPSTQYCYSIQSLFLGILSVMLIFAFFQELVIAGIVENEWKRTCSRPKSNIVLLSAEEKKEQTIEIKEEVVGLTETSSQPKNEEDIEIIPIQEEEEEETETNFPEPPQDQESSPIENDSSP

B1: v5851, hybrid: aCD3-BiTEx_I2C_scFvFc (VHVL) chain A / aCD19-MOR208_Fab chain B and light chain (bispecific antibody)
chain 1: not shown
chain 2: not shown
chain 3: DIVMTQSPATLSLSPGERATLSCRSSKSLQNVNGNTYLYWFQQKPGQSPQLLIYRMSNLNSGVPDRFSGSGSGTEFTLTISSLEPEDFAVYYCMQHLEYPITFGAGTKLEIKRTVAAPSVFIFPPSDEQLKSGTASVVCLLNNFYPREAKVQWKVDNALQSGNSQESVTEQDSKDSTYSLSSTLTLSKADYEKHKVYACEVTHQGLSSPVTKSFNRGEC
B2: v4542, cyno/human cross-reactive anti-CD3 BiTE 12C (VH-VL) scFv / anti-CD19 MOR208 (VH-VL) scFv heterodimeric knock-out Fc (bispecific antibody)
chain 1: not shown
chain 2: EVQLVESGGGLVKPGGSLKLSCAASGYTFTSYVMHWVRQAPGKGLEWIGYINPYNDGTKYNEKFQGRVTISSDKSISTAYMELSSLRSEDTAMYYCARGTYYYGTRVFDYWGQGTLVTVSSGGGGSGGGGSGGGGSDIVMTQSPATLSLSPGERATLSCRSSKSLQNVNGNTYLYWFQQKPGQSPQLLIYRMSNLNSGVPDRFSGSGSGTEFTLTISSLEPEDFAVYYCMQHLEYPITFGAGTKLEIKAAEPKSSDKTHTCPPCPAPEAAGGPSVFLFPPKPKDTLMISRTPEVTCVVVSVSHEDPEVKFNWYVDGVEVHNAKTKPREEQYNSTYRVVSVLTVLHQDWLNGKEYKCKVSNKALPAPIEKTISKAKGQPREPQVYVLPPSRDELTKNQVSLLCLVKGFYPSDIAVEWESNGQPENNYLTWPPVLDSDGSFFLYSKLTVDKSRWQQGNVFSCSVMHEALHNHYTQKSLSLSPGK
B3: v1821, common light chain: aCD3-12F6_Fab chain A / aCD20-Rituximab_Fab chain B, Rituximab light chain (bispecific antibody, human IgG1, kappa)
chain 1: QVQLVQSGGGVVQPGRSLRLSCKASGYTFTSYTMHWVRQAPGKGLEWIGYINPSSGYTKYNQKFKDRFTISADKSKSTAFLQMDSLRPEDTGVYFCARWQDYDVYFDYWGQGTPVTVSSASTKGPSVFPLAPSSKSTSGGTAALGCLVKDYFPEPVTVSWNSGALTSGVHTFPAVLQSSGLYSLSSVVTVPSSSLGTQTYICNVNHKPSNTKVDKKVEPKSCDKTHTCPPCPAPELLGGPSVFLFPPKPKDTLMISRTPEVTCVVVDVSHEDPEVKFNWYVDGVEVHNAKTKPREEQYNSTYRVVSVLTVLHQDWLNGKEYKCKVSNKALPAPIEKTISKAKGQPREPQVYVYPPSRDELTKNQVSLTCLVKGFYPSDIAVEWESNGQPENNYKTTPPVLDSDGSFALVSKLTVDKSRWQQGNVFSCSVMHEALHNHYTQKSLSLSPGK
chain 2: not shown
chain 3: QIVLSQSPAILSASPGEKVTMTCRASSSVSYIHWFQQKPGSSPKPWIYATSNLASGVPVRFSGSGSGTSYSLTISRVEAEDAATYYCQQWTSNPPTFGGGTKLEIKRTVAAPSVFIFPPSDEQLKSGTASVVCLLNNFYPREAKVQWKVDNALQSGNSQESVTEQDSKDSTYSLSSTLTLSKADYEKHKVYACEVTHQGLSSPVTKSFNRGEC
notes: The single light chain is shared by both Fabs
B4: v5850, hybrid: aCD3-BiTEx_I2C_scFvFc (VHVL) chain A / aCD20-Ofatumumab_Fab chain B and light chain (bispecific antibody)
chain 1: not shown
chain 2: not shown
chain 3: not shown
B5: v6325, hybrid: aCD3-Teplizumab-hOKT3_Fab chain A and light chain / aCD20-Ofatumumab_scFvFc (VHVL) chain B (bispecific antibody, human IgG1, kappa)
chain 1: QVQLVQSGGGVVQPGRSLRLSCKASGYTFTRYTMHWVRQAPGKGLEWIGYINPSRGYTNYNQKVKDRFTISRDNSKNTAFLQMDSLRPEDTGVYFCARYYDDHYCLDYWGQGTPVTVSSASTKGPSVFPLAPSSKSTSGGTAALGCLVKDYFPEPVTVSWNSGALTSGVHTFPAVLQSSGLYSLSSVVTVPSSSLGTQTYICNVNHKPSNTKVDKKVEPKSCDKTHTCPPCPAPELLGGPSVFLFPPKPKDTLMISRTPEVTCVVVDVSHEDPEVKFNWYVDGVEVHNAKTKPREEQYNSTYRVVSVLTVLHQDWLNGKEYKCKVSNKALPAPIEKTISKAKGQPREPQVYVYPPSRDELTKNQVSLTCLVKGFYPSDIAVEWESNGQPENNYKTTPPVLDSDGSFALVSKLTVDKSRWQQGNVFSCSVMHEALHNHYTQKSLSLSPGK
chain 2: not shown
chain 3: DIQMTQSPSSLSASVGDRVTITCSASSSVSYMNWYQQTPGKAPKRWIYDTSKLASGVPSRFSGSGSGTDYTFTISSLQPEDIATYYCQQWSSNPFTFGQGTKLQITRTVAAPSVFIFPPSDEQLKSGTASVVCLLNNFYPREAKVQWKVDNALQSGNSQESVTEQDSKDSTYSLSSTLTLSKADYEKHKVYACEVTHQGLSSPVTKSFNRGEC
B6: v1813, common light chain: aCD3-foralumab_Fab chain A / aCD20-Ofatumumab_Fab chain B, Ofatumumab light chain (bispecific antibody, human IgG1, kappa)
chain 1: not shown
chain 2: not shown
chain 3: not shown
notes: as for B3
B7: v1823, common light chain: aCD3-12F6_Fab chain A / aCD20-Tositumumab_Fab chain B, Tositumumab light chain (bispecific antibody, human IgG1, kappa)
chain 1: B3 chain 1
chain 2: not shown
chain 3: B3 chain 3 with I32M, F35Y, T50P, V59A, T91S, S92F, G99A, I105L
notes: as for B3
B8: v5852, hybrid: aCD3-Teplizumab-hOKT3_Fab chain A and light chain / aCD19-MOR208_scFvFc (VHVL) chain B (bispecific antibody, human IgG1, kappa, L234A L235A)
chain 1: B5 chain 1
chain 2: B2 chain 2
chain 3: B5 chain 3

The binders below were run against T1, CD19 on CD19-expressing Raji B cells (assay: FACS, Raji cells).

Point of comparison: B1, “Bmax (OD450)” value 3.88 OD450. Against it:
- B2 — lower, 2.96 OD450

Point of comparison: B2, Kd 0.7 nM. Against it:
- B1 — 2-fold higher, 1.38 nM

What follows are binders tested against T2, CD20 on CD19 and CD20-expressing Raji B … (assay: FACS, Raji cells).

Point of comparison: B3, “Bmax (OD450)” value 4.71 OD450. Against it:
- B4 — lower, 4.24 OD450
- B5 — higher, 6.44 OD450
- B6 — higher, 6.4 OD450

Point of comparison: B6, Kd 4.04 nM. Against it:
- B3 — 30-fold higher, 122 nM
- B4 — within 1.5-fold, 3.6 nM
- B5 — 2.9-fold higher, 11.9 nM

These binders were tested against T3, CD3 on CD3-expressing T cells (Jurkat, HPB-ALL) (UniProt P07766 23-207) (assay: FACS, Jurkat cells).
T3 construct: whole, on cells; A multi-chain complex on cells; also called CD3 complex

Point of comparison: B8, “Bmax (OD450)” value 2.21 OD450. Against it:
- B3 — lower, 2.11 OD450
- B7 — lower, 0.88 OD450
- B5 — higher, 2.51 OD450
- B6 — higher, 2.54 OD450

Point of comparison: B8, Kd 25.2 nM. Against it:
- B3 — 7.2-fold higher, 182 nM
- B7 — 2.7-fold higher, 68.8 nM
- B5 — 16-fold lower, 1.58 nM
- B6 — 27-fold higher, 691 nM
